Results as given in a protein production outcome set (Wang et al. 2014).

Assay: label from the status in PepcDB records

**Q.** For “MSMSSIPSSSPGGKRYGWVEKIGNKVPHPFLLFIYLIAVLIAATAILSALNVGVQNPTDGSRVVVKNLLSVEGLHWFLPNVIKNFSGFAPLGAILALVLGAGFAERVGLLPALMVKMASHVSARYASYMVLFIAFFSHISSDAALVIMPPLGALMFLAVGRHPVAGLLAAIAGVGCGFTANLLIVTTDVLLSGISTEAAKSIDASLHVSVIDNWYFMATSVIVLTLVGGLITDKLVEPRLGQWQGSRDEKLQTLTPAERFGLRIAGVATLVFVAVIALMVVPENGILRDPVQHTVMPSPFIKGIVPLIIFFFFVVSLAYGIATGKIRRQADLPQLMIEPMKEMAGFIVMVFPLAQFVAMFNWSNMGKFMAVGLTDLLESSGMNGVPAFVGLALLSAFLCMFIASGSAIWSILAPIFVPMFMLLGFHPAFAQILFRIADSSVLPLAPVSPFVPLFLGFLQRYRPDARLGTYYSLVLPYPLIFLAVWLLLLVGWYLVGLPIGPGIYPRLS”, which protein production is on record?
**A.** Its protein production is “failed”.

**Q.** Which protein production does the source give for “MSMSSSSSICGDEDGDLLLDEEEEIDFYAILNVPKDATDDEIIKAYRKRCLMFHPDRFVDNDEKKDAERVFVKLRRAHEVLLDPKQRAIYDALGVQGLDTQGWEL” here?
**A.** The protein production was “not failed”.

**Q.** With “MSMVVDSVPDSSTFVGKTIRPVAAVSIHGIVFDGERLLAVDSKNGYLLEIDPYTNNTKLLNGQYWQEFIGATGLAIADRQLWFSSGQYVYTCNLEGPDLKPEVFAWFDDPVNGVAIWESTVYITCHKRGHIWVYGRDTRKLVATFYSPGIGVENITVRGEELWVCDSAEQSVYCLDRATGEINFSLITPFESPTGLAFYDDQAVGKATLYVAYVQQEPYVRDNPNADPNHELMYRETTFIHPLYFYNDPHQCCAFSNGYLVEMRYVEELAPLDPVDLKQVEWRMALPAVTPRQRIRKIESVGLPFSRIDDVNGQKVAVFEFDQLDLDSRAVFGWRVEMEVWGIKYRLKPSDCEHLPALPEGFADRYLVDNDNLSMETDIIIRAAAEAIGRETNLLRQMFNIRNYVYDRLSYGIKPHIDTPDLALRRGVGSCGEYVGVLLALARLNGIACRTAGRYKCPPHPLQRNLPMEPDFNHVWFEFYLPGIGWLPMESNPDDTNDGGPYPTRFFMGLAWYHAETAKDVPFEQLLSQGIPVNKQVVSIGELAINHVQFTILEELDPAAHLAHLEHHHHHH” as the sequence, how does the protein production read?
**A.** The protein production was “not failed”.

**Q.** For “MSNAIEINELHWLLAVTQNIDVGIVVLDLNYRVTVWNTFMENRSGVVPYVAIDKTFFELFPEVNRQWLSKKIDNVVTLGTPAFTIWEQRPYLVRFKNYQPITGHEEFMYQNTTLFPLRSTTGAISHVCLVIYDVTDVAANRNQLQAANDKLQQLSGAEQK”, which protein production is on record?
**A.** Its protein production is “not failed”.

**Q.** With “MSNDNGVSRRQFMKTSALAAGGLLLACHLPLGRRDAAAATAEAFTPNAFLHIGTDERVTVIVNKSEMGQGVYTSLPMLVAEELCCDWKRVTFRPSPVAPEYNHTQFGPIMVTGGSTSVRSEWSRLSLAGAAAREMLIAAAAQEWRVEPAACRAEKGFVLGPGGRKLSFGTLAPKAASLPVPKEPKLKPGAKTLLGKPLKRLDSPAKIKGTAVFGIDVRAPGMLTALIARPPVFGGTVKGFDAAKAKAVPGVLDVVAVDAGVAVVADGFWPALKGREALAISWDEGDGARVSTDAMREEYARLAATPGAVARKDGDAPAELAKAARRFEAEYEVPYLAHATMEPLNCFVDLQSDSCLIRTGSQFQTGDRNAAARVAGLKPEQVTLETTFLGGGFGRRACPASDFVIEAVQVAKTVGKPVMVIRTREDDMRAGFYRPLWRDRVAACLDGRGYPLAWHHCIVGQSIMIGTPFEAMIRNGIDDTSVEGAADTPYAIPNLQVELHSPRNPVPVLWWRSVGHSHTAFVVESFLDELAHAAGKDPYQYRRALLAKHPRHLKVLETAARKAGWGKPLPKGRGRGIAVHESFGSFIAQVAEVSLSGDGRIRVHRVVCAVDCGRIVNPDTIEAQMESGITFGLSAALHGAITLRNGRVEQGNFDDYPLVRMAEMPTVEVHIVLSGEDPGGIGEPGVPPIAPAVANALFAASGIRVRSLPLTPETVKRAGGRAA” as the sequence, how does the protein production read?
**A.** The protein production was “failed”.

**Q.** For “MSNDTPFDALWQRMLARGWTPVSESRLDDWLTQAPDGVVLLSSDPKRTPEVSDNPVMIGELLHEFPDYTWQVAIADLEQSEAIGDRFGAFRFPATLVFTGGNYRGVLNGIHPWAELINLMRGLVEPQQERASLEHHHHHH”, which protein production is on record?
**A.** Its protein production is “not failed”.

**Q.** For “MSNFEKRNRKMAEKNIRKPKQERSIEKRNKILQVAKDLFSDKTYFNVTTNEIAKKADVSVGTLYAYFASKEDILTALLKRYNDFFLTTIFADINSQDSLDRFKKNPKEWLNVLINQLLAAEDKIFHAQIEMLAYAIPQAKALLEEHNNNLKNLTYKCLLYYSDQAANPSFKTLSLVVFDFISALVDELLYHEHTQEEAHQIKKTGIDSLDLIIKSYL”, which protein production is on record?
**A.** Its protein production is “not failed”.

**Q.** For “MSNHIDRDVINALIAGHFADPFSVLGMHRTDAGLEVRALLPDATDVWVIEPKTGRKVGKLECLDSRGFFSGVLPRRKNAFRYQLAVTWHGQQNLIDDPYRFGPLLQ”, which protein production is on record?
**A.** Its protein production is “not failed”.

**Q.** For “MSNHRHDHSLPSDADSRYLVAALTLLAAFMITEIITAVISGSLALLSDAGHMLSDIGAIAIALWAARLTRRRPQGSWTWGWKRAEIMSAAVNGVTLLVVAILVGIEAVRRLVTPPAVGGGLVMVIAAVGVVVNVAVAWLVARANRRSLNVEGAYQHILTDLFGFIGTLVAGLVIVTTGWTRADAIASLIICGLMLRAAWSLLSQTGRILMEVAPASLDLDEVRHHLMDLDHVRSVHDLHAWTVSSDLPALSAHIVVEDSCFADGHAPILLAQIQQCLSGHFDLDHSTLQLEPPRHAGTENQTM”, which protein production is on record?
**A.** The protein production was “failed”.

**Q.** With “MSNHSRDEPSTAPKTDQWYDLVLGSSAKDDSSHKFCTLRYEFKPASIDKNRSGSMHKKKDNRVSVEFQNNQPGKPKVTFEGSSEDYKESDAVLFFDGEKFRLERLHRAVTQLRHVRTPGESAAASQSAVPVEHRLSPVGRAAKSPQVNRSLLPDVPVEVERIEIGKPENSAEPANTGNVPATSPVEDKNDDGDEHQEIDLVEIFGSFTPENDNAEKENADGGEYVESLNKQLSMTEEEIADVDDDSGGEGEKGLNAAEALRAQVNAEVQKSQTSSSSSSSGSSSGSDSDGRSKSVSSGSGSGGQSSSGSSSRGSGGSDDEDEVNSV” as the sequence, how does the protein production read?
**A.** Its protein production is “failed”.

**Q.** For “MSNKEGSGGFRKRKHDNFPHNQRREGKDVNSSSPVMLAFKSFQQELDARHDKYERLVKLSRDITVESKRTIFLLHRITSAPDMEDILTESEIKLDGVRQKIFQVAQELSGEDMHQFHRAITTGLQEYVEAVSFQHFIKTRSLISMDEINKQLIFTTEDNGKENKTPSSDAQDKQFGTWRLRVTPVDYLLGVADLTGELMRMCINSVGNGDIDTPFEVSQFLRQVYDGFSFIGNTGPYEVSKKLYTLKQSLAKVENACYALKVRGSEIPKHMLADVFSVKTEMIDQEEGIS”, which protein production is on record?
**A.** The protein production was “failed”.

**Q.** Which protein production does the source give for “MSNKGSSDLRLLLSTLVISGLVAGLAYWQLSQHWTRSPDQNAGSPLHTPTSKWQKIALAMTLRGHEDEVNAIALSPDGNFLVSAGDDRRLYFWNLATGTALGQAKGHTDWIYALVMTPDGQTVISGSKDKTIKLWGVGDRQLQATLSGHQDFVNGLALSPDGRTLASASYDHTVKLWNVPSRQEITTLKANEGIMLSVAISRDGRFLATGGVDKLIRIWDLPSRRLLRTLEGHTSDVNSLAFTPDSSQLVSGSDKDGIKLWNLTTGELQQQFGTEGGQVFSVAVSPDGSTLASGHGDQTVKLWSLSGQLLRNLKGHSGAVYSVVFGQDQLISASEDKTIKVWRLFPETP” here?
**A.** Its protein production is “failed”.

**Q.** Which protein production does the source give for “MSNMVEVPIFIAILSFIVMCIGELLAYYSVSLKYKYEFEAISFGFIFGVATLILIPKSYSNMFVLYVILGMITVYLIEKYLAYCPLSKKYCVECDNLEENRIKFIYPISFFIHTFIDGLIIAVSYISEIGLPLYLAILMHKLPAGFVLISPLKGVYKNPLYPGVFVSFGTVLGTIVGLVTLKDVSTKILLAFSGGVFLGAFLMLAPHIYEHKEEKTFLYILLGYILVGIIALH” here?
**A.** Its protein production is “failed”.

**Q.** For “MSNNEPSSLKQSIKLAWPISLQSILVTMLGMSDIMMVGHLGDTAVASVGLGNRIQFVFLIILAGLASGVGTLSAQHFGAGQIGVIRQIIVKTLVIAAGILLPILLITFLFAGNIMGIATTDPSVINTGTSYLWLTMPSLIFVVVVMIFENALRGLGQVIFPMFISIIAIITNIILNYWLIKGGLGIEPMGVIGAALATLLARALHALLILTYLAKVKHSIFPTTFFCADFYNKQAWTKLLTLVWPMMLSFGVWSLGTFVYQLIYGRIGTQELAVMSLLAPIEGLLVSFFFGFASACAILVGQRLGKNEFSNAWSLAKNYAISAPIITFLLALILLQYQYLVFMPFSNLSSETITLSQEILVLICFGTCLKVFNMTIAMGILRAGGDNKYCMFIDISGMWIISIPLTFMAAFYFMLPLYWVALIAYSEEIIKAVMFIFRMKTRHWLKNLTAESMA”, which protein production is on record?
**A.** Its protein production is “failed”.

**Q.** For “MSNPLLSIIIPTHNRPHLVTHAVQSALEQTMEDLEVIVVDDASTQPIDLPSHPRLRLIRLLQSHGGAGARNVGLEAALGRWVAFLDDDDRLLPQMAEVSLEALSQTSLPAPVAVISGLEEVNAQGKVLGQRLPPPLRPRGVHFFLEEIEPDQSYNTKQTLVVEREVLQKIGGWDEEMRSRVHSELFLRLNPACSIIGLPIITYQLYNHGGQRVSRNPMLRQESFLRLVHKHKSLFQAHPQMFAKLVYEHANKCYEIGLKREAFYNLFWSMQLDPLQIAPRVVTRVYQSRLKFVIRSYKLKH”, which protein production is on record?
**A.** Its protein production is “failed”.

**Q.** Which protein production does the source give for “MSNQFIQYLNRAASGSIPGFVIMKLLMLELPNLMGLLLPLGFYVALLLAYGRLYAESEMTVLRACGYGPRQLLKHSFAMATVVLVVVAIVMIWASPVIAVERIKLIRSTGIKTLIQTIMPGRFHAINSGQQIFYVQSMNRDHSQAEQIFMAKHSVQDNRLLWDVLWADKAFAEVNPQTGEEYIVLQNGKEYQGVPGHADYQIAEFASYKSKLPNPTVVMHDDARTAKTRDLWPLNNHDLKKAAELQWRISIPLMVLTLTLVAVPLSRVSPRSGKYSKLLPAIIIYIFYANFMFVSRDAIATGKIPWWIGMWWVHVAVAILGILFIWRNQVKLA” here?
**A.** Its protein production is “failed”.

**Q.** For “MSNSRELGDLLEQIRLGEDSQLEFKRVVFENDKIKGPNGDSLSQEIAAFANAIGGRLILGVDDKTRDVVGIPLDRLDAVSIWLENCVHDRIKPEPTIYLRRRLVPDRSGTEHAVLVIDIPRSLYVHLAPGGYFRRQGSSKHELPPNELLRLMQSRQRAGTLGFDEMPVLGCTQANFDAALYGRFLGTTDEPEELRLRKLKLLVPGEPGEEWASVAGVLMATATPSDWLPQAYVQCVHYAGTEKTAQEQLDAQDIQGPLDQQIRQAAAFVLRGMRTAARKNLGRIDVPQFDPEAVFEAIANAGAHRDYSISGAPVQVHLFTDRLEITSPGALPNSQSVESIALRTATRNELLTNLLARCPVEMEGVGRSRVMEKRGEGVPQILNRSERLSGHRPKFELLGENALRVTLYAADPETSPLLNEAGRGSVGLPHAGFARDDG”, which protein production is on record?
**A.** The protein production was “failed”.

**Q.** For “MSNSSIDIGVPSLPPPFSIGTISIPTFSRQHLFLKIILHYNLVERYSRQLIVLGLGIQQRLNELKILIAGCGALGTAVAELLARLGVKELTIVDADVVDITNLHRVHLFDENDVGKPKAEVCAKKISLINSSIKINYIIDILDEENVERLISDKDYVFDALDSLYYKLLLNDAIVKLGKILIYGGINGEYGSAKLIDPSQTSCLSCFIDYSDQDEIGNSCDVIGTTPLIVELTATLQVNLMLNHLRGNPDYSLFYIDSRELKIERINIEKNSQCKTCVLNEYPFLYQKISKPKCGIFRTNMKIPELDEPKVFKNLGNVTLCYPSIGCFEKRGR”, which protein production is on record?
**A.** The protein production was “failed”.

**Q.** Which protein production does the source give for “MSNTYLASMALMGALVVAVVTWMVRGRGWYHYSPGSSTSGRSPTSDRESRFETYADQPMVWVGAFAVLVVGLLVGVVASISGPVETQSIAGLAVAVVGGAGLCGYLLFGVYLSATRRGHPRSLAVAESATVAGVLFLIAVGFQLVGA” here?
**A.** The protein production was “failed”.

**Q.** With “MSNVLTEIDSQYPYMTKNEKKIAKFILNSPQKVIKMRSQDLASLLDISTSSVIRFSKKITDGGFHDLKINISKYVPKASSIYNVELMNNESTESLRTKLHTRTTRALNHANNELN” as the sequence, how does the protein production read?
**A.** Its protein production is “not failed”.
